Reference: patent US9512196B2, “Short-form human MD-2 as a negative regulator of toll-like receptor 4 signaling” (Cedars-Sinai Medical Center, priority 2008, dated 2016)
Where a chain is given by its changes, count along the chain named. Names may count otherwise. Each block holds one molecule with its values, some of them ahead of it.

Key:
[1] = test system: MD-2 tyrosine phosphorylation; assay: LPS-induced MD-2 tyrosine phosphorylation in HEK293 cells (immunoprecipitation, anti-phosphotyrosine immunoblot); assay type: cell-based, human; settings: pretreatment 1-2 h before LPS; HEK293 cells overexpressing TLR4 and MD-2
Protocol: 24 h later cells were left untreated (lanes 1 and 2) or stimulated with LPS (lanes 3-7). Flag-tagged proteins were immunoprecipitated with an anti-Flag Ab in cell lysates and analyzed by SDS-PAGE and immunoblotted with an anti-phosphotyrosine Ab (top panel), or an anti-Flag Ab (middle and lower panels). (B) HEK293 cells were transiently transfected with Flag-TLR4 and Flag-MD-2 (lanes 1-5). 24 hrs later, cells were pretreated for 2 hrs with herbimycin A at 0.5 μg/ml (lane 3) or 2.5 μg/ml (lane 4), or for 1 hr with 2 μM cytochalasin D (lane 5) prior to stimulation with LPS for 5 mins.
(A) HEK293 cells were transiently transfected with TLR4 and Myc-MD-2 (lanes 1-6). […] Myc-tagged proteins were immunoprecipitated with an anti-Myc Ab in cell lysates, and analyzed by SDS-PAGE and immunoblotted with an anti-phosphotyrosine Ab (top panel), or an anti-Myc Ab (lower panel). […] Cells were left untreated or stimulated with LPS for 6 hours and luciferase activity measured in cell lysates and expressed as fold induction relative to untreated cells.
Tyrosine phosphorylation of numerous proteins is induced upon stimulation with LPS and indeed the LPS receptor, TLR4, is itself tyrosine phosphorylated. […] Proteins were immunoprecipitated from cell extracts with an anti-Flag Ab and analyzed by immunoblotting with an Ab that detects proteins phosphorylated on phosphotyrosine residues. […]

TLR4 = molecular target: T1, TLR4 (Homo sapiens, UniProt O00206); assay: NF-κB luciferase reporter in HEK293 cells expressing TLR4, LPS stimulation; assay type: cell-based; settings: for Ability to activate NF-κB upon LPS stimulation compared to wild-type MD-2: construct transfected into HEK293 TLR4/NF-κB reporter cells, LPS 6 h; for Decrease in NF-κB activity upon LPS stimulation: versus wild-type MD-2
T1 construct: expressed in transfected cells; host or cells: HEK293
T1 sequence (O00206 24-839): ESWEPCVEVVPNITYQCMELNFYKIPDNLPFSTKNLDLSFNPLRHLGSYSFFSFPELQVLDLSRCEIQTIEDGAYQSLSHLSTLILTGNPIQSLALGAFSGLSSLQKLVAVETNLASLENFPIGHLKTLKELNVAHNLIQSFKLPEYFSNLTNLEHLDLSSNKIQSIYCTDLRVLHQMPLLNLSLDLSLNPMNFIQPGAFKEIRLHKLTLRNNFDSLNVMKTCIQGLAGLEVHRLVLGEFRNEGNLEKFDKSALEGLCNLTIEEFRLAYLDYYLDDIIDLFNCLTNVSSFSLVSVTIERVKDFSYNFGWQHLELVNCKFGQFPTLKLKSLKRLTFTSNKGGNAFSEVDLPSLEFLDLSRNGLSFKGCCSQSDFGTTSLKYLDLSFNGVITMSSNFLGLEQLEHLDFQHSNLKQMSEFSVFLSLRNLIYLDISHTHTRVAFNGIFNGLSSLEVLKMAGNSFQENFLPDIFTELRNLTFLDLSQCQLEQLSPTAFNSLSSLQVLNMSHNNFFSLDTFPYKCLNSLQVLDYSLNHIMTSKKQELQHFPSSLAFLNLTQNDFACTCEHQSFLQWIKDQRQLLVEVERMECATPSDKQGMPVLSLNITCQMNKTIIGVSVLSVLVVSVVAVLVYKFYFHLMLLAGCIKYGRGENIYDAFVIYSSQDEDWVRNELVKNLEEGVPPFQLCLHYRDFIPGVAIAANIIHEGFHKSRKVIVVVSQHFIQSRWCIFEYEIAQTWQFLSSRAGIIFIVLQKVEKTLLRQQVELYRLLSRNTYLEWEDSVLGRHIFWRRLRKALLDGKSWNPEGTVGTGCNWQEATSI
Protocol: (A) HEK-293 cells stably transfected with TLR4 and a NF-κB reporter gene were treated with supernatants containing either MD-2 or MD-2s as described in the examples herein. Cells were left untreated or stimulated with LPS for 24 h. Mean relative stimulation of luciferase activity±S.D. for a representative experiment, each performed in triplicate, is shown. (B) HEK-293 cells stably transfected with TLR4 and a NF-κB reporter gene were transiently transfected with plasmids encoding for either MD-2, MD-2s or CD14 as shown. 24 h later, cells were left untreated or stimulated with LPS (250 ng/ml) for 6 h. Mean relative stimulation of luciferase activity±SD for a representative experiment, each performed in triplicate, is shown. (C) and (D) Supernatants were also collected and measured for IL-8 secretion.
(A) HEK293 cells were transiently transfected with plasmids encoding TLR4 and a NF-κB reporter gene in combination with MD-2 and MD-2s as indicated. 24 h later, cells were left untreated or incubated with LPS (250 ng/ml) for 5 h. Mean relative stimulation of luciferase activity±S.D. for a representative experiment from three separate experiments, each performed in triplicate, is shown. (B) HEK-293 cells stably transfected with TLR4 and a NF-κB reporter gene were treated with supernatants containing either MD-2 and MD-2s as depicted and left untreated or incubated with LPS for 24 h. Mean relative stimulation of luciferase activity±S.D. for a representative experiment from three separate experiments, each performed in triplicate, is shown.
HEK293 cells were transiently transfected with the expression vectors noted in combination with constructs encoding the NF-κB- and IL-8-luciferase reporter gene, and either the β-galactosidase gene or the phRL-TK report gene to normalize for transfection efficiency. In all cases, total DNA concentration was kept constant by supplementation with empty vector control. Following overnight incubation, cells were stimulated for 6 hours with 50 ng/ml LPS and then lysed, and luciferase activity was measured as described previously (Ohta et al. (2004) BIOCHEM BIOPHYS RES COMMUN 323, 1103-1108). Data are shown as mean±SD of three or more independent experiments and are reported as a percentage of LPS-stimulated NF-κB and IL-8 promoter activity, or relative luciferase activity.
The requirement for MD-2s in LPS mediated NF-κB activation was assessed. It has been shown that the soluble form of wild-type MD-2 confers LPS responsiveness to cells expressing TLR4; therefore, it was investigated if soluble MD-2s was also bioactive. Culture supernatants were obtained from HEK293 cells transiently expressing control vector, MD-2, or MD-2s, and incubated with HEK293 cells stably transfected with TLR4 and an NF-κB-dependent luciferase reporter gene.
MD-2s was tested to see if it needed to be transiently expressed in TLR4 reporter cells in order to mediate NF-κB activation following LPS stimulation. HEK293 cells stably transfected with TLR4 and an NF-κB-dependent luciferase reporter gene were transiently transfected with plasmids encoding CD14 in combination with either MD-2 or MD-2s, and subsequently treated with LPS.
HEK293 cells were transiently transfected with plasmids encoding CD14, TLR4, and wild-type MD-2 in conjunction with a plasmid encoding the NF-κB-dependent luciferase reporter gene in the presence or absence of a plasmid encoding MD-2s. […] Furthermore, we assessed the inhibitory role of soluble MD-2s following LPS stimulation. HEK293 cells stably transfected with TLR4 and an NF-κB-dependent luciferase reporter gene were incubated with supernatants obtained from HEK293 cells transiently expressing a constant amount of MD-2 with increasing concentrations of MD-2s.

Molecule: C=C1[C@@H](C)[C@H]2[C@H](Cc3ccccc3)NC(=O)[C@]23[C@H](OC(C)=O)/C=C/[C@@](C)(O)C(=O)[C@@H](C)C/C=C/[C@H]3[C@@H]1O [cytochalasin D]
Effect on LPS-induced MD-2 tyrosine phosphorylation [1]: significantly inhibited

Molecule: CO[C@H]1[C@@H](OC)C[C@H](C)[C@@H](OC)C2=CC(=O)C=C(NC(=O)/C(C)=C/C=C\[C@H](OC)[C@@H](OC(N)=O)/C(C)=C/[C@@H]1C)C2=O [herbimycin A]
Effect on LPS-induced MD-2 tyrosine phosphorylation [1]: significantly inhibited

Ability to activate NF-κB upon LPS stimulation compared to wild-type MD-2 (TLR4): significantly less potent | Decrease in NF-κB activity upon LPS stimulation (TLR4): 50%
B1: MD-2-Y22F: human MD-2 with tyrosine 22 mutated to phenylalanine (protein)
chain: MLPFLFFSTLFSSIFTEAQKQFWVCNSSDASISYTYCDKMQYPISINVNPCIELKRSKGLLHIFYIPRRDLKQLYFNLYITVNTMNLPKRKEVICRGSDDDYSFCRALKGETVNTTISFSFKGIKFSKGKYKCVVEAISGSPEEMLFCLEFVILHQPNSN
modifications: Tyrosine to phenylalanine mutation at position 22 of human MD-2
notes: human MD-2 with tyrosine 22 mutated to phenylalanine

Ability to activate NF-κB upon LPS stimulation compared to wild-type MD-2 (TLR4): significantly less potent | Decrease in NF-κB activity upon LPS stimulation (TLR4): 50%
B2: MD-2-Y131F: human MD-2 with tyrosine 131 mutated to phenylalanine (protein)
chain: B1 chain with F22Y, Y131F
modifications: Tyrosine to phenylalanine mutation at position 131 of human MD-2
notes: human MD-2 with tyrosine 131 mutated to phenylalanine

B3: MD-2-Y22FY131F: human MD-2 double mutant, tyrosines 22 and 131 mutated to phenylalanine (protein)
chain: B1 chain with Y131F
modifications: Tyrosine to phenylalanine mutation at position 22 and 131 of human MD-2
notes: human MD-2 double mutant, tyrosines 22 and 131 mutated to phenylalanine
Ability to activate NF-κB upon LPS stimulation compared to wild-type MD-2 (TLR4): do not activate NF-κB as strongly as wild-type MD-2
